# Experimental data as given in article PMC5289646, “Proline Metabolism is Essential for Trypanosoma brucei brucei Survival in the Tsetse Vector” (PLoS Pathogens, 2017).
# B1: TbP5CDH (Trypanosoma brucei brucei TREU927) (protein)
# chain: PPAVNERMDSFQPGSDSARGTLEACKRLRCGATDCPIVIGGKEYRTDNAINRMIPSSHQQQVAKGYNATPELAQKAIDTALGAAKEWSQMPFKDRAAIFLHAAHLISTKYRHELRAATMLGQSKNPFQAEIDVIAESCDFLRFSVKYAEELYNQQPISPASGPVWNALDYRPLEGFVSVIAPFNFSAIAANLVACPALMGNVILWKPSPNAVLSNYLLYKVFEEAGLPAGVVNFMPCEPKVMTEVVNSHPELAGVAFTGSTNVFLSINKQIYSRLEEYRNIPRISGETGGKDFHLIHPTADMKMTAALTVRGAFEYQGQKCSATSRIYVPQSRWEELKGYLLELHGKLKMGQPDDFQSFMCAVIDETAFDRNKKYIDIAKADSSAYTIIAGGGCDKSEGWFIQPTIIVAKDPNAQLLREEIFGPILTVHVYDDSKPDFWSEACNLVNNATKYALTGSIFAQDRKAIRDATEKHLRYAAGNYYINDKCTGAVVGQQPFGGARASGSNDKPGSALFLTRWVSARTIKENFDHSAQVSYPHQLPDYVTL
# Columns and labels:
# [1] = substrate: O=C(O)C1CCC=N1; test: cells, lysate or membranes; conditions: 1 mM NAD+ (saturating), 20-600 μM P5C/γGS, potassium phosphate pH 7.2, 28°C, racemic substrate in equilibrium with open form, crude homogenate
# [2] = substrate: NC(=O)c1ccc[n+]([C@@H]2O[C@H](COP(=O)(O)OP(=O)(O)OC[C@H]3O[C@@H](n4cnc5c(N)ncnc54)[C@H](O)[C@@H]3O)[C@@H](O)[C@H]2O)c1; test: cells, lysate or membranes; conditions: 600 μM P5C/γGS (saturating), 0.01-2.5 mM NAD+, potassium phosphate pH 7.2, 28°C, crude homogenate, varied: cofactor
protein,measurement,setting,value
B1,Km,[1],92.7 ± 14 µM
same,Km,[2],380 ± 40 µM
